# Test results taken from paper PMC3784395, “Ectopic Expression of WUS in Hypocotyl Promotes Cell Division via GRP23 in Arabidopsis”.
# T1: GST-WUS (WUSCHEL) (UniProt Q9SB92 1-292)
# T1 sequence: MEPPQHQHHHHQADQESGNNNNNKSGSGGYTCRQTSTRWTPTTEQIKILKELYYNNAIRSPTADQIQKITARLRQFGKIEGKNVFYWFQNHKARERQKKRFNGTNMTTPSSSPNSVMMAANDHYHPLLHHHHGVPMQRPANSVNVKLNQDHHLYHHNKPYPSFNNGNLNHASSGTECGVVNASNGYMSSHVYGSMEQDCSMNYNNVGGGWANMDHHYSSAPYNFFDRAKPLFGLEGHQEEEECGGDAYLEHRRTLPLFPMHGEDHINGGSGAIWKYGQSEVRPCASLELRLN
# B1: GRP23 promoter mutant (both TAAT to GGGG) (dsDNA)
# DNA 1: CATATATCTTGGGGACTGTGGGGGATCTTTCTTCAAAAAC
# DNA 2: GTTTTTGAAGAAAGATCCCCCACAGTCCCCAAGATATATG
# B2: GRP23 promoter probe wt (-748 to -709) (dsDNA)
# DNA 1: CATATATCTTTAATACTGTTAATGATCTTTCTTCAAAAAC
# DNA 2: GTTTTTGAAGAAAGATCATTAACAGTATTAAAGATATATG
# What was measured:
# [1] = target: T1, GST-WUS (WUSCHEL); experiment: competition; unlabeled mutant competitor up to 800x excess vs labeled N1; Lightshift Chemiluminescent EMSA kit (Pierce), per manufacturer; buffer, salt, pH and temperature not stated; conditions: protein: recombinant; chain copies: 2; blunt
# [2] = target: T1, GST-WUS (WUSCHEL); experiment: EMSA; Lightshift Chemiluminescent EMSA kit (Pierce), per manufacturer; buffer, salt, pH and temperature not stated; conditions: protein: recombinant; chain copies: 2; label: 3' biotin on both strands (probe); blunt
Binder,binding result [1],binding result [2]
B1,no binding,–
B2,–,binds
